Data set [1] relates to Saccharomyces cerevisiae. In words: protein stability index of tFT-peptide fusion (C-terminal peptide) (PSI (0-1 scale)); higher = more stable (slower turnover). On the procedure:
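MPS profiling in S. cerevisiae of the tFT-X12 degron library: putative degron peptides plus stable controls, 12 aa, fused to the C-terminus of a sfGFP-mCherry timer. Cells are FACS-sorted into 8 mCherry/sfGFP bins and deep-sequenced. PSI runs from 0 (unstable) to 1 (stable). Backgrounds are wild type, das1Δ and doa10Δ at 30 °C, and wild type, das1Δ, cdc34-1 and cdc53-1 at 37 °C; 2-3 technical replicates each.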

Data set [2] deals with Saccharomyces cerevisiae. The description is as above. The note with it: genetic background: wild type; temperature: 30 C.
The mark [3] stands for this setting: genetic background: cdc34-1, temperature: 37 C.
[4] abbreviates: genetic background: cdc53-1, temperature: 37 C.
Setting [5] is: genetic background: das1 deletion, temperature: 30 C.
Where [6] appears, read: genetic background: das1 deletion, temperature: 37 C.
Setting [7] is: genetic background: doa10 deletion, temperature: 30 C.
Where [8] appears, read: genetic background: wild type, temperature: 30 C.
Setting [9] is: genetic background: wild type, temperature: 37 C.

The results in this text go back to the supplement of paper PMC10724198.

± gives the standard deviation of the averaged measurements.
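Further: PSI is a weighted mean of sequencing reads over stability bins, variants kept only with over 10 reads, mCherry proximal and sfGFP distal, peptide attached via GGGS linker.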

On to SPPSFPPLLLLS, for which the protein stability index worked out at 0.668 ± 0.043 in data set [1] (setting [3]); 0.7368 ± 0.00078 in data set [1] (setting [4]); 0.608 ± 0.015 in data set [1] (setting [5]); 0.7386 ± 0.0036 in data set [1] (setting [6]); 0.326 ± 0.028 in data set [1] (setting [7]); 0.362 ± 0.022 in data set [1] (setting [8]). Further, the protein stability index is 0.541 ± 0.028 in data set [1] (setting [9]) and 0.48 ± 0.022 in data set [2].
As for SPSFLVIFTMLL, the protein stability index in data set [1] (setting [3]) was 0.528 ± 0.023; in data set [1] (setting [4]), 0.577 ± 0.01; in data set [1] (setting [5]) it was 0.433 ± 0.034; in data set [1] (setting [6]), 0.6018 ± 0.0041; in data set [1] (setting [7]), 0.438 ± 0.044; in data set [1] (setting [8]) it was 0.444 ± 0.013. Besides, the protein stability index was 0.596 ± 0.017 in data set [1] (setting [9]) and 0.468 ± 0.015 in data set [2].
Regarding SPSSLPRPLFLS, the protein stability index is 0.592 ± 0.015 in data set [1] (setting [3]); 0.726 ± 0.017 in data set [1] (setting [4]); 0.616 ± 0.015 in data set [1] (setting [5]); 0.7356 ± 0.0018 in data set [1] (setting [6]); 0.138 ± 0.033 in data set [1] (setting [7]); 0.163 ± 0.02 in data set [1] (setting [8]). The protein stability index is 0.289 ± 0.026 in data set [1] (setting [9]) and 0.261 ± 0.053 in data set [2].
Regarding SPVPITVAVGCR, the protein stability index amounted to 0.473 ± 0.0085 in data set [1] (setting [3]); 0.491 ± 0.012 in data set [1] (setting [4]); 0.352 ± 0.034 in data set [1] (setting [5]); 0.5444 ± 0.0028 in data set [1] (setting [6]); 0.329 ± 0.008 in data set [1] (setting [7]); 0.357 ± 0.021 in data set [1] (setting [8]). For the same sequence, the protein stability index is 0.499 ± 0.018 in data set [1] (setting [9]) and 0.407 ± 0.029 in data set [2].
Take SQSNQSIIRKNV: the protein stability index in data set [1] (setting [3]) is 0.7 ± 0.043; in data set [1] (setting [4]), 0.713 ± 0.0077; in data set [1] (setting [5]) it was 0.63 ± 0.013; in data set [1] (setting [6]), 0.737 ± 0.016; in data set [1] (setting [7]) it was 0.296 ± 0.034; in data set [1] (setting [8]), 0.36 ± 0.032. The protein stability index in data set [1] (setting [9]) is 0.551 ± 0.069; in data set [2], 0.453 ± 0.02.
For the sequence SSCLPAPPPLPL, the protein stability index in data set [1] (setting [3]) was 0.6491 ± 0.003; in data set [1] (setting [4]), 0.747 ± 0.025; in data set [1] (setting [5]), 0.682 ± 0.042; in data set [1] (setting [6]), 0.698 ± 0.0084; in data set [1] (setting [7]), 0.677 ± 0.0075; in data set [1] (setting [8]), 0.672 ± 0.021. Also, the protein stability index in data set [1] (setting [9]) is 0.701 ± 0.017; in data set [2], 0.4965 ± 0.0048.
On to SSFFFLFCFFPS, for which the protein stability index in data set [1] (setting [3]) turned out to be 0.575 ± 0.13; in data set [1] (setting [4]), 0.619 ± 0.027; in data set [1] (setting [5]), 0.48 ± 0.062; in data set [1] (setting [6]), 0.646 ± 0.055; in data set [1] (setting [7]) it was 0.444 ± 0.031; in data set [1] (setting [8]), 0.449 ± 0.019. The protein stability index in data set [1] (setting [9]) turned out to be 0.604 ± 0.017; in data set [2] it was 0.471 ± 0.047.
As to SSFPGPPLPPDP, the protein stability index in data set [1] (setting [3]) was found to be 0.704 ± 0.024; in data set [1] (setting [4]), 0.74 ± 0.013; in data set [1] (setting [5]), 0.652 ± 0.024; in data set [1] (setting [6]), 0.731 ± 0.022; in data set [1] (setting [7]), 0.682 ± 0.038; in data set [1] (setting [8]), 0.7 ± 0.019. The protein stability index in data set [1] (setting [9]) came out at 0.7108 ± 0.0069; in data set [2] it was 0.59 ± 0.17.
Take SSVFRLKGLMFL: the protein stability index came to 0.622 ± 0.062 in data set [1] (setting [3]); 0.721 ± 0.042 in data set [1] (setting [4]); 0.65 ± 0.047 in data set [1] (setting [5]); 0.7146 ± 0.0016 in data set [1] (setting [6]); 0.262 ± 0.0081 in data set [1] (setting [7]); 0.277 ± 0.016 in data set [1] (setting [8]). The protein stability index was determined as 0.448 ± 0.012 in data set [1] (setting [9]) and 0.442 ± 0.038 in data set [2].
As for SSVLLMFFCFVC, the protein stability index in data set [1] (setting [3]) came to 0.256 ± 0.02; in data set [1] (setting [4]), 0.388 ± 0.015; in data set [1] (setting [5]), 0.318 ± 0.014; in data set [1] (setting [6]), 0.476 ± 0.025; in data set [1] (setting [7]), 0.159 ± 0.012; in data set [1] (setting [8]), 0.164 ± 0.011. Moreover, the protein stability index in data set [1] (setting [9]) turned out to be 0.252 ± 0.019; in data set [2] it was 0.262 ± 0.023.
On to SSVLWVMFVFFY, for which the protein stability index was 0.313 ± 0.026 in data set [1] (setting [3]); 0.387 ± 0.0063 in data set [1] (setting [4]); 0.309 ± 0.058 in data set [1] (setting [5]); 0.442 ± 0.0026 in data set [1] (setting [6]); 0.264 ± 0.0091 in data set [1] (setting [7]); 0.253 ± 0.067 in data set [1] (setting [8]). Besides, the protein stability index in data set [1] (setting [9]) turned out to be 0.387 ± 0.027; in data set [2], 0.436 ± 0.058.
With SVFGLLSVCFFY, the protein stability index in data set [1] (setting [3]) is 0.488 ± 0.032; in data set [1] (setting [4]), 0.5669 ± 0.002; in data set [1] (setting [5]), 0.385 ± 0.029; in data set [1] (setting [6]), 0.604 ± 0.0077; in data set [1] (setting [7]), 0.358 ± 0.016; in data set [1] (setting [8]), 0.398 ± 0.018. Moreover, the protein stability index in data set [1] (setting [9]) amounted to 0.549 ± 0.022; in data set [2] it was 0.472 ± 0.019.
As for SVKRVVPCLVSC, the protein stability index in data set [1] (setting [3]) came out at 0.442 ± 0.0081; in data set [1] (setting [4]), 0.468 ± 0.0077; in data set [1] (setting [5]), 0.332 ± 0.035; in data set [1] (setting [6]), 0.525 ± 0.0063; in data set [1] (setting [7]), 0.289 ± 0.0049; in data set [1] (setting [8]) it was 0.337 ± 0.022. For the same sequence, the protein stability index was found to be 0.486 ± 0.0031 in data set [1] (setting [9]) and 0.45 ± 0.063 in data set [2].
Consider SVLSFGVFCLVG, for which the protein stability index in data set [1] (setting [3]) came to 0.553 ± 0.043; in data set [1] (setting [4]), 0.65407 ± 0.00051; in data set [1] (setting [5]), 0.524 ± 0.023; in data set [1] (setting [6]) it was 0.61 ± 0.0077; in data set [1] (setting [7]), 0.4185 ± 0.0031; in data set [1] (setting [8]) it was 0.427 ± 0.033. Further, the protein stability index in data set [1] (setting [9]) worked out at 0.527 ± 0.013; in data set [2], 0.538 ± 0.13.
In the case of SVPRTRAPRLIS, the protein stability index in data set [1] (setting [3]) stood at 0.646 ± 0.027; in data set [1] (setting [4]) it was 0.73 ± 0.034; in data set [1] (setting [5]) it was 0.658 ± 0.025; in data set [1] (setting [6]), 0.71911 ± 0.00014; in data set [1] (setting [7]), 0.184 ± 0.0079; in data set [1] (setting [8]), 0.213 ± 0.024. Besides, the results for the protein stability index in data set [1] (setting [9]) and in data set [2] were 0.4611 ± 0.00082 and 0.384 ± 0.041, respectively.
